# In patent US20070134256A1:
# B1: chimpanzee Fab 1A5 (Fab, V domains shown)
# VH: EVQLLESGGGLVQPGGSRRLSCAASGFTISDNVMHWVRQAPGKGLEWVALIYSADTTHYADSVKGRFTISRDNSKNTLYLQMDSLRPEDTAVYYCAREYCTGDTCFAHFDYWGQGTLVSVSS
# VL: ELQMTQSPSSVSASVGDTVTIACRASQSITNYLSWYQQKPGKAPKLLIYHASTLQSGIPSRFSGSGSGTDFTLTISSLQPDDFATYYCHYGYGTHTFGQGTKLEIKRT
# Legend:
# [1] = target: chimpanzee Fab 1A5; test: competition ELISA: Fab 1A5 (1.04 nM) pre-incubated with peptide in serial dilution, then binding to DENV-2 coated wells
# [2] = target: DENV-2 antigenic variant NGC-V2 (dengue type 2 virus), P14340; test: cell-based or functional assay
binder,measurement,setting,value
DRGWGNGSGLFGKGG (modifications not checked) [fusion peptide …],IC50,[1],170 µM
B1,PRNT50 titer,[2],> 70 µg/mL
